Reference: PMC8522838 (2021)

B1: SmBiT-MYC 1-190 [human] / TRRAP 2033-2283-LgBiT [not stated] (parent complex)
chain 1: MPLNVSFTNRNYDLDYDSVQPYFYCDEEENFYQQQQQSELQPPAPSEDIWKKFELLPTPPLSPSRRSGLCSPSYVAVTPFSLRGDNDGGGGSFSTADQLEMVTELLGGDMVNQSFICDPDDETFIKNIIIQDCMWSGFSAAAKLVSEKLASYQAARKDSGSPNPARGHSVCSTSSLYLQDLSAAASECID
chain 2: NSSGEGVNSVSSSIKRGLSVDSAQEVKRFRTATGAISAVFGRSQSLPGADSLLAKPIDKQHTDTVVNFLIRVACQVNDNTNTAGSPGEVLSRRCVNLLKTALRPDMWPKSELKLQWFDKLLMTVEQPNQVNYGNICTGLEVLSFLLTVLQSPAILSSFKPLQRGIAACMTCGNTKVLRAVHSLLSRLMSIFPTEPSTSSVASKYEELECLYAAVGKVIYEGLTNYEKATNANPSQLFGTLMILKSACSNNP

Variants of: B1
Experiment: luminescence complementation (NanoBiT) in transfected cells; normalized for MYC expression level; parent: 100; read off a plot

| Variant | percent of parent |
| --- | --- |
| chain 1 T58I | ~102 % RLU to WT |
| chain 1 S136A | ~77 % RLU to WT |
| chain 1 F138A | ~24 % RLU to WT |

Next, values leading:

| percent of parent | Variant |
| --- | --- |
| ~43 % RLU to WT | chain 1 M134A |
| ~35 % RLU to WT | chain 1 W135A |
